Test results taken from patent publication US20200262877A1, “ION CHANNEL-BINDING PEPTIDES AND METHODS OF USE THEREOF” (priority 2017, published 2020).

Assays:
TRPV1 = biological target: T1, TRPV1 (Homo sapiens, UniProt Q8NER1); experiment: Ion channel panel (IonWorks Barracuda): TRPV1; assay type: cell-based; conditions: 100% = no change, <100% = inhibition
T1 construct: host or cells: HEK293 or CHO
Summary of the method: (§1)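 Peptides were tested in duplicate at final 20 μM and 200 nM, with concentration set by amino acid analysis, in HEPES-buffered saline. They were applied for at least 5 min to HEK293 or CHO cells transfected with each channel. Currents were expressed as % inhibition, 1-(Ipeptide/Icontrol)×100, or % activation, Ipeptide/Icontrol×100, against a channel-matched reference compound.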

NR2B = biological target: T2, NR2B (Homo sapiens, UniProt Q13224); experiment: Ion channel panel (IonWorks Barracuda): NR2B; assay type: cell-based; conditions: 100% = no change, <100% = inhibition
T2 construct: host or cells: HEK293 or CHO
Summary of the method: as §1

α4β2 = biological target: T3, α4β2 (Homo sapiens, UniProt P17787+P43681); experiment: Ion channel panel (IonWorks Barracuda): α4β2; assay type: cell-based; conditions: 100% = no change, <100% = inhibition
T3 construct: host or cells: HEK293 or CHO
Summary of the method: as §1

Kv1.1 = biological target: T4, Kv1.1 (Homo sapiens, UniProt Q09470); experiment: cell-based; assay type: cell-based; conditions: 100% = no change, <100% = inhibition
T4 construct: host or cells: HEK293 or CHO
Summary of the method: as §1

Kv1.3 = biological target: T5, Kv1.3 (Homo sapiens, UniProt P22001); experiment: cell-based; assay type: cell-based; conditions: 100% = no change, <100% = inhibition
T5 construct: host or cells: HEK293 or CHO
Summary of the method: as §1

Kv1.2 = biological target: T6, Kv1.2 (Homo sapiens, UniProt P16389); experiment: cell-based; assay type: cell-based; conditions: 100% = no change, <100% = inhibition
T6 construct: host or cells: HEK293 or CHO
Summary of the method: as §1

GABA = experiment: Ion channel panel (IonWorks Barracuda): GABA; assay type: cell-based; conditions: 100% = no change, <100% = inhibition
Summary of the method: as §1

5HT3a = biological target: T7, 5HT3a (Homo sapiens, UniProt P46098); experiment: Ion channel panel (IonWorks Barracuda): 5HT3a; assay type: cell-based
T7 construct: host or cells: HEK293 or CHO
T7 sequence (P46098 whole entry, looked up): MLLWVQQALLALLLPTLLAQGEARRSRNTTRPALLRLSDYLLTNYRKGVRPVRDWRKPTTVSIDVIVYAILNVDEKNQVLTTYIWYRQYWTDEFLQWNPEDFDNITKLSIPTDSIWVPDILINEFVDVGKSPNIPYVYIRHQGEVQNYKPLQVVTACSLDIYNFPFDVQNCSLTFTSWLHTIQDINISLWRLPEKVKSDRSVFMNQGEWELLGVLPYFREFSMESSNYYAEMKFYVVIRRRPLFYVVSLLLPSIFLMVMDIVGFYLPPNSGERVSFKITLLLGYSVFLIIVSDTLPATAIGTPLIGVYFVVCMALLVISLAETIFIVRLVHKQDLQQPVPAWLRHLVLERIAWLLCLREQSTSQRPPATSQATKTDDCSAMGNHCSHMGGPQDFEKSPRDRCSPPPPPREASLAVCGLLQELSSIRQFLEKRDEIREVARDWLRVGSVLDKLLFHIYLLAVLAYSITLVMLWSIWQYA
Summary of the method: as §1

α3β4 = biological target: T8, α3β4 (Homo sapiens, UniProt P30926+P32297); experiment: Ion channel panel (IonWorks Barracuda): α3β4; assay type: cell-based; conditions: 100% = no change, <100% = inhibition
T8 construct: host or cells: HEK293 or CHO
Summary of the method: as §1

Nav1.7 = biological target: T9, Nav1.7 (Homo sapiens, UniProt Q15858); experiment: cell-based; assay type: cell-based; conditions: 100% = no change; for Activity of Nav1.7 with peptide, expressed as a percentage of the reference compound: peptide at 0.2 μM; for Activity of Nav1.7 with peptide (percentage of the reference compound): peptide at 20 μM
T9 construct: host or cells: HEK293 or CHO
T9 sequence (Q15858 whole entry): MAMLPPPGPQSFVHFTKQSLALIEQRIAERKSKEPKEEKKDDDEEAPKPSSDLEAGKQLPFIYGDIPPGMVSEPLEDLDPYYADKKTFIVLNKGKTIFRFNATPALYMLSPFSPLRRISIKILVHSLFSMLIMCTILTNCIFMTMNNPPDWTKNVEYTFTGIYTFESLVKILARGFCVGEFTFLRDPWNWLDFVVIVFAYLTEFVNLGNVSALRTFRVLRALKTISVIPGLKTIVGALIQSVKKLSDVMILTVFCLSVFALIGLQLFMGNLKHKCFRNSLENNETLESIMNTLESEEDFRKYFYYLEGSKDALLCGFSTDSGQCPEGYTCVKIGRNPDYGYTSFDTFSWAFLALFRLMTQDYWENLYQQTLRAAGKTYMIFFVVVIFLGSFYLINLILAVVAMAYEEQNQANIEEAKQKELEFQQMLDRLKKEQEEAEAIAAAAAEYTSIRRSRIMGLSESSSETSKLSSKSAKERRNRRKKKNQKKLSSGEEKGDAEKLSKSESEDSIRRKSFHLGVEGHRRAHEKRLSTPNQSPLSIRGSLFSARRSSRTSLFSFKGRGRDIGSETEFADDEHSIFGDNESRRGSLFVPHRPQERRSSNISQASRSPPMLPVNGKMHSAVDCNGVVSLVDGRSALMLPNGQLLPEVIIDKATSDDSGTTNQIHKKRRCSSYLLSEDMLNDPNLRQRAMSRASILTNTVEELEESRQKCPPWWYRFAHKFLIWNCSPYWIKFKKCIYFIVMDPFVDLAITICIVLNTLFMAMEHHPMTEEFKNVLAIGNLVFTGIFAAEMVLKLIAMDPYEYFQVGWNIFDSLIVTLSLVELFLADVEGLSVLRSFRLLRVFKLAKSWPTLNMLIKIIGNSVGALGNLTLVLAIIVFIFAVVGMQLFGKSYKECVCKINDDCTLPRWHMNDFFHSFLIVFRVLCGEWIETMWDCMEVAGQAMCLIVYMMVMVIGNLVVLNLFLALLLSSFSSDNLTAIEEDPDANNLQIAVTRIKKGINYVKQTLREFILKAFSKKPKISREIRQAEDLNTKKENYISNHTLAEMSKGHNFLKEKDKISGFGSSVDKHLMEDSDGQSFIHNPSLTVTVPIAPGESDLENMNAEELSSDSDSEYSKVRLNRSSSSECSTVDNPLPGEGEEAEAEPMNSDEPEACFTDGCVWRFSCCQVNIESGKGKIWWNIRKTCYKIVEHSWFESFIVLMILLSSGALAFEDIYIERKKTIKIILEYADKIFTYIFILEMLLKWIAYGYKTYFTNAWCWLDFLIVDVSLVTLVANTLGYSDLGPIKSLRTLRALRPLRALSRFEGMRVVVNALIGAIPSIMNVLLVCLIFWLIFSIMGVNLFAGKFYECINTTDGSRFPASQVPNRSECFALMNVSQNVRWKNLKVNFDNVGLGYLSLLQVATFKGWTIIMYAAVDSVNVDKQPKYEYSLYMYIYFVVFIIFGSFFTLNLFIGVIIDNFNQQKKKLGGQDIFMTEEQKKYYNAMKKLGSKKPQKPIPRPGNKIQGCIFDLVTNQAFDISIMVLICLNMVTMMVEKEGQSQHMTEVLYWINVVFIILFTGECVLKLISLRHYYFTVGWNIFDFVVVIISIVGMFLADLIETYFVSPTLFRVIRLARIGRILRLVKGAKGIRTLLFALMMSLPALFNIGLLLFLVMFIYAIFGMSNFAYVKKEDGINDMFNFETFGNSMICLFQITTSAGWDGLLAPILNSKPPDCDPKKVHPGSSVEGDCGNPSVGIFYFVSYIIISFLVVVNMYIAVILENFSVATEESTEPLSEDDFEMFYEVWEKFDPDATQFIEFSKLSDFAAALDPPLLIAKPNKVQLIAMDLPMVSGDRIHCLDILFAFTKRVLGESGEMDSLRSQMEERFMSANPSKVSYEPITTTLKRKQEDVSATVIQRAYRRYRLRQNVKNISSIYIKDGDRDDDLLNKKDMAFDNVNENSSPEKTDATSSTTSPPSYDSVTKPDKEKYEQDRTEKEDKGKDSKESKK

NR2A = biological target: T10, NR2A (Homo sapiens, UniProt Q12879); experiment: Ion channel panel (IonWorks Barracuda): NR2A; assay type: cell-based; conditions: 100% = no change, <100% = inhibition
T10 construct: host or cells: HEK293 or CHO
Summary of the method: as §1

Kv2.1 = biological target: T11, Kv2.1 (Homo sapiens, UniProt Q14721); experiment: cell-based; conditions: 100% = no change, <100% = inhibition
T11 construct: host or cells: HEK293 or CHO
Summary of the method: as §1

Cav2.1 = biological target: T12, Cav2.1 (Homo sapiens, UniProt O00555); experiment: cell-based; conditions: 100% = no change, <100% = inhibition
T12 construct: host or cells: HEK293 or CHO
Summary of the method: as §1

Cav2.2 = biological target: T13, Cav2.2 (Homo sapiens, UniProt Q00975); experiment: cell-based; conditions: 100% = no change, <100% = inhibition
T13 construct: host or cells: HEK293 or CHO
Summary of the method: as §1

hERG = hERG (Homo sapiens, UniProt Q12809); experiment: in vitro; conditions: 100% = no change, <100% = inhibition
Summary of the method: as §1

Nav1.5 = Nav1.5 (Homo sapiens, UniProt Q14524); experiment: in vitro; conditions: 100% = no change; for Activity of Nav1.5 with peptide, expressed as a percentage of the reference compound: peptide at 0.2 μM; for Activity of Nav1.5 with peptide (percentage of the reference compound): peptide at 20 μM
Chain of Nav1.5 (Q14524 whole entry): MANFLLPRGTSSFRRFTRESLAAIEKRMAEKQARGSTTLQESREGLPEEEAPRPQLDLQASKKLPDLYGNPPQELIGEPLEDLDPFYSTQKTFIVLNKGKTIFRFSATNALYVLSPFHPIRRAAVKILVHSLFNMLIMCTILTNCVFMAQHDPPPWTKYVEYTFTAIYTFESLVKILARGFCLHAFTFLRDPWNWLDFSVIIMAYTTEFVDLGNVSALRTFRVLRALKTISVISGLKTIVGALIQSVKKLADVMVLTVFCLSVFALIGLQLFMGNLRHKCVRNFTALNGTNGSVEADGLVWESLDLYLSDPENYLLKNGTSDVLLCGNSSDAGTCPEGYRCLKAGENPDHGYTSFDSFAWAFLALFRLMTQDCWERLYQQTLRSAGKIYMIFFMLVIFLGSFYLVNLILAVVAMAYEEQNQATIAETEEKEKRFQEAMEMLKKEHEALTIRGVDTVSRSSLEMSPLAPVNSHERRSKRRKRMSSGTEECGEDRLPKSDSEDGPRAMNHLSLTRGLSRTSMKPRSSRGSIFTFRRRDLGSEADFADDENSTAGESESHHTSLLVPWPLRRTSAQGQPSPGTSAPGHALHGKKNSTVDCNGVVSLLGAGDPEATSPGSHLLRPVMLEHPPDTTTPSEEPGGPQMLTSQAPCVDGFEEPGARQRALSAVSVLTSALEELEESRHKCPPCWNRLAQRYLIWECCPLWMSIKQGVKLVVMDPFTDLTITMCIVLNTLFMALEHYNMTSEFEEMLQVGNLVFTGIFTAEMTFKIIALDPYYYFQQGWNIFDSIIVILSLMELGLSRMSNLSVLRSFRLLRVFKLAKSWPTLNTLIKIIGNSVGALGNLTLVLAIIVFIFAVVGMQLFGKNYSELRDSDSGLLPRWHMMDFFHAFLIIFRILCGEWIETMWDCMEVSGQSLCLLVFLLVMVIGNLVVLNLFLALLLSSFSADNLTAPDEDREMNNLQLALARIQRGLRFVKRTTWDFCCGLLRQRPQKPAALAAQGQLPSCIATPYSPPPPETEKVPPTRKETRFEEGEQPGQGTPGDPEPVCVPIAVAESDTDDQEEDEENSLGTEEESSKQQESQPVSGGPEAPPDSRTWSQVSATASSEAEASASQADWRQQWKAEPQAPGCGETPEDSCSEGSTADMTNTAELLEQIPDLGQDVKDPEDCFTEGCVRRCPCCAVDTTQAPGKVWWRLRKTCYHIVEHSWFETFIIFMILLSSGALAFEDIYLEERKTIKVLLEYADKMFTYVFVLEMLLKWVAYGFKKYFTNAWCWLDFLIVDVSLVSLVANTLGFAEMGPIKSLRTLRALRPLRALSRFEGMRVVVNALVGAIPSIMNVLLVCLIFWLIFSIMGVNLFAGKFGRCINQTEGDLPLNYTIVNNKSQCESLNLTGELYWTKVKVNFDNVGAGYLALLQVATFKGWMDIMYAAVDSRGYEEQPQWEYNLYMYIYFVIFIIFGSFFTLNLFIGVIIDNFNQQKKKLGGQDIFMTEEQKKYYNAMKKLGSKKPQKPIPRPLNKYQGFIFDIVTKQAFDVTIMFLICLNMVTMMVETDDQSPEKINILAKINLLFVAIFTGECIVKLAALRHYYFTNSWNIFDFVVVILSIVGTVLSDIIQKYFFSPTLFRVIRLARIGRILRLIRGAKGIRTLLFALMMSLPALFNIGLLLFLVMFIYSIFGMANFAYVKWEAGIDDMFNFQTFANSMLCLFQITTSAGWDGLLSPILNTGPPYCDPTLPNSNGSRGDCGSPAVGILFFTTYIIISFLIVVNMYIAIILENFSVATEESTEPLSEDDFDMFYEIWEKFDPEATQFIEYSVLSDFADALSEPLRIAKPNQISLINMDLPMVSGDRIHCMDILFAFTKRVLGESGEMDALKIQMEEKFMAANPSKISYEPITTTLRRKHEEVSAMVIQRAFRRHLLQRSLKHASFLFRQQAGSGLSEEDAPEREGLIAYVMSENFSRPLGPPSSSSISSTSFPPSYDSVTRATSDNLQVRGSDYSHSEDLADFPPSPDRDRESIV
Summary of the method: as §1

Kir2.1 = biological target: T14, Kir2.1 (Homo sapiens, UniProt P63252); experiment: Ion channel panel (IonWorks Barracuda): Kir2.1; assay type: cell-based; conditions: 100% = no change, <100% = inhibition
T14 construct: host or cells: HEK293 or CHO
Summary of the method: as §1

TRPA1 = biological target: T15, TRPA1 (Homo sapiens, UniProt O75762); experiment: Ion channel panel (IonWorks Barracuda): TRPA1; assay type: cell-based; conditions: 100% = no change, <100% = inhibition
T15 construct: host or cells: HEK293 or CHO
T15 sequence (O75762 whole entry): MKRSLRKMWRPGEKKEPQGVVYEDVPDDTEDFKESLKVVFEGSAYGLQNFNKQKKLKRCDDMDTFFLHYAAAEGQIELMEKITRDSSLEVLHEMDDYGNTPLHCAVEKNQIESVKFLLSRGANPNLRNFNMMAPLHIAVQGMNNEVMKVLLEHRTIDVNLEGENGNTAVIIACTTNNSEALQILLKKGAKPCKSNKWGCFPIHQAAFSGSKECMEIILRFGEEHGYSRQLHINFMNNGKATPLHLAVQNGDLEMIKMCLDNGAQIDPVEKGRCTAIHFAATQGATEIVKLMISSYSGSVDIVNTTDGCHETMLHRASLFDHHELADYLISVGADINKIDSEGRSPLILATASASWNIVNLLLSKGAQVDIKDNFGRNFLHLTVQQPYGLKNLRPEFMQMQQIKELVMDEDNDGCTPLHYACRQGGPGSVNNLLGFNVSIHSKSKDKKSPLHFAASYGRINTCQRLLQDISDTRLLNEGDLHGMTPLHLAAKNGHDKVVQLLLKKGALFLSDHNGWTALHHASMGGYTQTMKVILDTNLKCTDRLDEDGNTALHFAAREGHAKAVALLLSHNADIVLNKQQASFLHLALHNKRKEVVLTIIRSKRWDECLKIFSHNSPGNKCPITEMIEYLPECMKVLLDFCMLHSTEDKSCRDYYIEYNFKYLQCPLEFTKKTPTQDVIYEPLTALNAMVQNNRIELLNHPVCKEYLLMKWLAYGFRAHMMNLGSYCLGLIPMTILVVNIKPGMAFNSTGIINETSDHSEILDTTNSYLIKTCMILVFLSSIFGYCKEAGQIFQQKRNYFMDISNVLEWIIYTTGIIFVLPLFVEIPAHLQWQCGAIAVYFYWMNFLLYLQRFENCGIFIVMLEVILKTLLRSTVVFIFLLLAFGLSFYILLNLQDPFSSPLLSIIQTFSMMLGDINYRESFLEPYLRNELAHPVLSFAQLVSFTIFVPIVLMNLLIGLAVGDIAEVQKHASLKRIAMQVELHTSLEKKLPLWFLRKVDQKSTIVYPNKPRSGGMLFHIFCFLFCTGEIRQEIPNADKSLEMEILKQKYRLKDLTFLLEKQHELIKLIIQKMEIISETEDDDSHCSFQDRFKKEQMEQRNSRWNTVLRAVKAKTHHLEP
Summary of the method: as §1

[1] = first of two Nav1.7 columns (probably TP1)
[2] = second of two Nav1.7 columns (probably TP2)
[3] = first of two Nav1.5 columns (probably TP1)
[4] = second of two Nav1.5 columns (probably TP2)

## 9 (GSGCFGYKCDYYKGCCSGYVCSPTWKWCVRPGPGR) [compound 9]
TRPV1; peptide at 0.2 μM
  Activity of TRPV1 with peptide, expressed as a percentage of the reference compound: 112%
TRPV1; peptide at 20 μM
  Activity of TRPV1 with peptide (percentage of the reference compound): 79%
NR2B; peptide at 0.2 μM
  Activity of NR2B with peptide, expressed as a percentage of the reference compound: 77%
NR2B; peptide at 20 μM
  Activity of NR2B with peptide (percentage of the reference compound): 85%
α4β2; peptide at 0.2 μM
  Activity of a4b2 with peptide, expressed as a percentage of the reference compound: 96%
α4β2; peptide at 20 μM
  Activity of a4b2 with peptide (percentage of the reference compound): 81%
Kv1.1; peptide at 0.2 μM
  Activity of Kv1.1 with peptide, expressed as a percentage of the reference compound: 103%
Kv1.1; peptide at 20 μM
  Activity of Kv1.1 with peptide (percentage of the reference compound): 97%
Kv1.3; peptide at 0.2 μM
  Activity of Kv1.3 with peptide, expressed as a percentage of the reference compound: 107%
Kv1.3; peptide at 20 μM
  Activity of Kv1.3 with peptide (percentage of the reference compound): 89%
Kv1.2; peptide at 0.2 μM
  Activity of Kv1.2 with peptide, expressed as a percentage of the reference compound: 120%
Kv1.2; peptide at 20 μM
  Activity of Kv1.2 with peptide (percentage of the reference compound): 104%
GABA; peptide at 0.2 μM
  Activity of GABA with peptide, expressed as a percentage of the reference compound: 99%
GABA; peptide at 20 μM
  Activity of GABA with peptide (percentage of the reference compound): 98%
5HT3a
  Activity of 5HT3a with peptide (percentage of the reference compound): 73%
  Activity of 5HT3a with peptide, expressed as a percentage of the reference compound: 107%
α3β4; peptide at 0.2 μM
  Activity of a3b4 with peptide, expressed as a percentage of the reference compound: 105%
α3β4; peptide at 20 μM
  Activity of a3b4 with peptide (percentage of the reference compound): 103%
Nav1.7; [1]
  Activity of Nav1.7 with peptide, expressed as a percentage of the reference compound: 108%
  Activity of Nav1.7 with peptide (percentage of the reference compound): 94%
Nav1.7; [2]
  Activity of Nav1.7 with peptide, expressed as a percentage of the reference compound: 110%
  Activity of Nav1.7 with peptide (percentage of the reference compound): 114%
NR2A; peptide at 0.2 μM
  Activity of NR2A with peptide, expressed as a percentage of the reference compound: 89%
NR2A; peptide at 20 μM
  Activity of NR2A with peptide (percentage of the reference compound): 87%
Kv2.1; peptide at 0.2 μM
  Activity of Kv2.1 with peptide, expressed as a percentage of the reference compound: 112%
Kv2.1; peptide at 20 μM
  Activity of Kv2.1 with peptide (percentage of the reference compound): 99%
Cav2.1; peptide at 0.2 μM
  Activity of Cav2.1 with peptide, expressed as a percentage of the reference compound: 111%
Cav2.1; peptide at 20 μM
  Activity of Cav2.1 with peptide (percentage of the reference compound): 108%
Cav2.2; peptide at 0.2 μM
  Activity of Cav2.2 with peptide, expressed as a percentage of the reference compound: 109%
Cav2.2; peptide at 20 μM
  Activity of Cav2.2 with peptide (percentage of the reference compound): 102%
hERG; peptide at 0.2 μM
  Activity of hERG with peptide, expressed as a percentage of the reference compound: 104%
hERG; peptide at 20 μM
  Activity of hERG with peptide (percentage of the reference compound): 98%
Nav1.5; [3]
  Activity of Nav1.5 with peptide, expressed as a percentage of the reference compound: 104%
  Activity of Nav1.5 with peptide (percentage of the reference compound): 109%
Nav1.5; [4]
  Activity of Nav1.5 with peptide, expressed as a percentage of the reference compound: 103%
  Activity of Nav1.5 with peptide (percentage of the reference compound): 110%
Kir2.1; peptide at 0.2 μM
  Activity of Kir2.1 with peptide, expressed as a percentage of the reference compound: 105%
Kir2.1; peptide at 20 μM
  Activity of Kir2.1 with peptide (percentage of the reference compound): 103%
TRPA1; peptide at 0.2 μM
  Activity of TRPA1 with peptide, expressed as a percentage of the reference compound: 131%
TRPA1; peptide at 20 μM
  Activity of TRPA1 with peptide (percentage of the reference compound): 112%
